The data set is described as follows: melting temperature; melt of duplexes. The settings on record: sodium 0.0675 M; strand 1 µM.
As to “CGACGTGCAAGATGTGCTG+CAGCACATTGCGCACGTCG ((((((((...((((((((+))))))))...))))))))”, the Tm stood at 52.9 °C. For “CGACGTGCCATATGTGCTG+CAGCACATGCGGCACGTCG (((((((((..((((((((+))))))))..)))))))))”, the Tm amounted to 54.1 °C. The figure for “CGACGTGCGGGATGTGCTG+CAGCACATCCGGCACGTCG ((((((((.((((((((((+)))))))))).))))))))” is 61.6 °C; for “CGACGTGCGCGATGTGCTG+CAGCACATTTGGCACGTCG ((((((((...((((((((+))))))))...))))))))” it is 49.7 °C. To “CGACGTGCGACATGTGCTG+CAGCACATCAAGCACGTCG ((((((((...((((((((+))))))))...))))))))” belongs 52.6 °C. The figure for “CGACGTGCACTATGTGCTG+CAGCACATCTAGCACGTCG ((((((((...((((((((+))))))))...))))))))” is 42.4 °C; for “CGACGTGCGGGATGTGCTG+CAGCACATACGGCACGTCG ((((((((.(.((((((((+)))))))).).))))))))” it is 55.6 °C.

Turning to “CGACGTGCGGAATGTGCTG+CAGCACATACCGCACGTCG ((((((((((.((((((((+)))))))).))))))))))”, the Tm was determined as 60.2 °C.

On to “CGACGTGCTGTATGTGCTG+CAGCACATCAGGCACGTCG ((((((((...((((((((+))))))))...))))))))”, for which the Tm is 51.7 °C.

For the substance “CGACGTGCGACATGTGCTG+CAGCACATAACGCACGTCG (((((((((..((((((((+))))))))..)))))))))”, the Tm was 54.2 °C. For “CGACGTGCCGAATGTGCTG+CAGCACATCTAGCACGTCG ((((((((...((((((((+))))))))...))))))))”, the midpoint of thermal melting (Tm) amounted to 50.1 °C.

Consider “CGACGTGCCCAATGTGCTG+CAGCACATTCCGCACGTCG ((((((((..(((((((((+)))))))))..))))))))”, for which the Tm was found to be 49.3 °C. To “CGACGTGCGAGATGTGCTG+CAGCACATATAGCACGTCG ((((((((.(.((((((((+)))))))).).))))))))” belongs 54.6 °C. For “CGACGTGCCCCATGTGCTG+CAGCACATAGCGCACGTCG ((((((((.(.((((((((+)))))))).).))))))))”, the Tm is 47.3 °C. The figure for “CGACGTGCACTATGTGCTG+CAGCACATTTGGCACGTCG ((((((((...((((((((+))))))))...))))))))” is 45.3 °C.

With “CGACGTGCTCCATGTGCTG+CAGCACATAAAGCACGTCG (((((((((..((((((((+))))))))..)))))))))”, the melting temperature (Tm) turned out to be 50.9 °C.

As for “CGACGTGCTCCATGTGCTG+CAGCACATCACGCACGTCG ((((((((...((((((((+))))))))...))))))))”, the Tm was found to be 47 °C.

“CGACGTGCCCCATGTGCTG+CAGCACATAATGCACGTCG ((((((((...((((((((+))))))))...))))))))”: the Tm worked out at 45.8 °C. To “CGACGTGCTTTATGTGCTG+CAGCACATCTTGCACGTCG ((((((((...((((((((+))))))))...))))))))” belongs 48.5 °C; to “CGACGTGCCCTATGTGCTG+CAGCACATTTGGCACGTCG (((((((((..((((((((+))))))))..)))))))))”, 54.1 °C; to “CGACGTGCATTATGTGCTG+CAGCACATTCCGCACGTCG ((((((((...((((((((+))))))))...))))))))”, 47.5 °C. The figure for “CGACGTGCGACATGTGCTG+CAGCACATGGAGCACGTCG ((((((((..(((((((((+)))))))))..))))))))” is 63.5 °C.

“CGACGTGCCACATGTGCTG+CAGCACATATTGCACGTCG ((((((((.(.((((((((+)))))))).).))))))))”: the Tm was found to be 47.4 °C. The figure for “CGACGTGCCAGATGTGCTG+CAGCACATATGGCACGTCG ((((((((((.((((((((+)))))))).))))))))))” is 59.9 °C. To “CGACGTGCTATATGTGCTG+CAGCACATTAGGCACGTCG ((((((((...((((((((+))))))))...))))))))” belongs 51.4 °C. The figure for “CGACGTGCGTCATGTGCTG+CAGCACATTAAGCACGTCG ((((((((.(.((((((((+)))))))).).))))))))” is 53.3 °C; for “CGACGTGCTCAATGTGCTG+CAGCACATATCGCACGTCG ((((((((...((((((((+))))))))...))))))))” it is 47.5 °C; for “CGACGTGCAGAATGTGCTG+CAGCACATCGAGCACGTCG ((((((((...((((((((+))))))))...))))))))” it is 50.3 °C.

Take “CGACGTGCTACATGTGCTG+CAGCACATGTAGCACGTCG (((((((((((((((((((+)))))))))))))))))))”: the Tm was 63.6 °C. The figure for “CGACGTGCGGTATGTGCTG+CAGCACATTGGGCACGTCG ((((((((...((((((((+))))))))...))))))))” is 49.8 °C. The figure for “CGACGTGCGACATGTGCTG+CAGCACATTCAGCACGTCG ((((((((...((((((((+))))))))...))))))))” is 52.4 °C; for “CGACGTGCTCGATGTGCTG+CAGCACATTAAGCACGTCG (((((((((..((((((((+))))))))..)))))))))” it is 51.9 °C; for “CGACGTGCTAAATGTGCTG+CAGCACATCGGGCACGTCG ((((((((...((((((((+))))))))...))))))))” it is 49.7 °C. As for “CGACGTGCTTAATGTGCTG+CAGCACATAAAGCACGTCG ((((((((((.((((((((+)))))))).))))))))))”, the Tm was found to be 56.2 °C. To “CGACGTGCGGAATGTGCTG+CAGCACATAATGCACGTCG ((((((((...((((((((+))))))))...))))))))” belongs 52 °C; to “CGACGTGCAATATGTGCTG+CAGCACATTAAGCACGTCG ((((((((...((((((((+))))))))...))))))))”, 50.1 °C. The figure for “CGACGTGCCACATGTGCTG+CAGCACATACCGCACGTCG ((((((((...((((((((+))))))))...))))))))” is 46.7 °C; for “CGACGTGCGCAATGTGCTG+CAGCACATTCTGCACGTCG ((((((((..(((((((((+)))))))))..))))))))” it is 52.3 °C; for “CGACGTGCAGAATGTGCTG+CAGCACATTGCGCACGTCG ((((((((..(((((((((+)))))))))..))))))))” it is 52.1 °C.

For “CGACGTGCAGTATGTGCTG+CAGCACATCGAGCACGTCG ((((((((...((((((((+))))))))...))))))))”, the Tm is 50.1 °C.

On to “CGACGTGCGTCATGTGCTG+CAGCACATAGCGCACGTCG (((((((((..((((((((+))))))))..)))))))))”, for which the midpoint of thermal melting (Tm) came out at 55.1 °C.

“CGACGTGCCAGATGTGCTG+CAGCACATCTAGCACGTCG ((((((((.((((((((((+)))))))))).))))))))”: the Tm came out at 56.8 °C. With “CGACGTGCTCGATGTGCTG+CAGCACATAATGCACGTCG ((((((((...((((((((+))))))))...))))))))”, the Tm worked out at 49.7 °C. In the case of “CGACGTGCAACATGTGCTG+CAGCACATCAAGCACGTCG ((((((((...((((((((+))))))))...))))))))”, the Tm amounted to 47.1 °C. As for “CGACGTGCGGTATGTGCTG+CAGCACATAAAGCACGTCG ((((((((..(((((((((+)))))))))..))))))))”, the Tm stood at 56.9 °C. Regarding “CGACGTGCTGAATGTGCTG+CAGCACATCTCGCACGTCG ((((((((...((((((((+))))))))...))))))))”, the Tm was 50 °C. To “CGACGTGCAGAATGTGCTG+CAGCACATGCGGCACGTCG ((((((((.(.((((((((+)))))))).).))))))))” belongs 54.4 °C.

The values above are taken from the array DNA melting data of Ke et al..
